Test results as given in the supplement of paper PMC9170038.

Tested on: MS2 coat protein
Assay: apparent KD of MS2 coat protein; designed switch direction (-1 OFF switch, 1 ON switch): -1; higher = weaker reporter binding
Summary of the method: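 The reported apparent KD is a per-design median over clusters, from curve fits of normalised cluster fluorescence. Protein titrations used SNAP-549-labelled MS2 coat protein, doubled from 0.7 or 1.5 nM to 3 µM, in Tris-HCl pH 7.5 buffer with KCl, MgCl2, BSA, DTT, tRNA and Tween-20, with no input, 200 uM small-molecule ligand, or an oligonucleotide input. The RNA switches were transcribed on Illumina chips by stalled E. coli RNA polymerase.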

[1] = Eterna round: R95, input ligand: FMN 200 uM
[2] = Eterna round: R95, input ligand: microRNA oligo, concentration not stated
[3] = Eterna round: R95, input ligand: none
[4] = input ligand: microRNA oligo, concentration not stated

UAUUUACAUGAGGAUCACCCAUGUCAGGAUAUGUUUCUAUCGUCGAAAGACGAUAUUUGCAGAAGGGACAAUAU [LRO-Excl01-26 mod derived from EliFisker 4.24] (Eterna round: R97, puzzle: Exclusion 1)
apparent KD of MS2 coat protein (input ligand: FMN 200 uM): 64.4 nM | apparent KD of MS2 coat protein (input ligand: none): 27.9 nM

UUUAAUUUUUUUUUUUUACAAGCUUUUUGCUCGUCUUAUACAUGAGGAUCACCCAUGUGAGUGGAGGAUAAAUUAUC [JMF 34] (puzzle: Sensor v3, turn-off variant 2)
apparent KD of MS2 coat protein [1]: 19.4 nM | apparent KD of MS2 coat protein [2]: 29.2 nM | apparent KD of MS2 coat protein [3]: 20.4 nM

GCAGCAACUCUAAUCAAUCAAACAUGAGGAUCACCCAUGUCUCAGGAUAUGGUCUGGAUUACAGGCCAGAAGGGAGAAAGCUGC [Eli exng3 - 045] (Eterna round: R96, puzzle: Exclusion NG 3)
apparent KD of MS2 coat protein (input ligand: FMN 200 uM): 14.3 nM | apparent KD of MS2 coat protein [4]: 11.1 nM | apparent KD of MS2 coat protein (input ligand: none): 16.1 nM

GGUGCGUUUGUGAGGAUAUGCUGGUCCUUGGAUCUGCAGAAGGCACAUGAGGAUCACCCAUGUGGUGUCGUACC [salish99_Bmod_Ex4_036] (puzzle: Brourd's mod of Exclusion 4)
apparent KD of MS2 coat protein [2]: 208 nM

UAAAUGUGAGGAUAUUCGAUUUACUCGGAGACGAGUAGAUCGGAGAAGGCACAUGAGGAUCACCCAUGUUCCUU [Mat - Exclusion 4 - JL Mod - D10] (Eterna round: R97, puzzle: Exclusion 4)
apparent KD of MS2 coat protein (input ligand: FMN 200 uM): 234 nM | apparent KD of MS2 coat protein (input ligand: none): 23.2 nM

GGCAGGCUAGAGGAUAUGCAUUGGCUUGGCCAAGCAGAAGGCUAGACAUGAGGAUCACCCAUGUGUUCCUUGUG [jl-ex6-4.36 ViennaUCT mod] (Eterna round: R97, puzzle: Exclusion 6)
apparent KD of MS2 coat protein (input ligand: FMN 200 uM): 83.5 nM | apparent KD of MS2 coat protein (input ligand: none): 93.6 nM

GUAAACGCAGAGGAUAUUUCAGAUCAAAGCUGCAAAGAAGGCUGCACAUGAGGAUCACCCAUGUGGUCUUCAAG [Mat - Exclusion 6 - JL Mod - D10] (Eterna round: R97, puzzle: Exclusion 6)
apparent KD of MS2 coat protein (input ligand: FMN 200 uM): 297 nM | apparent KD of MS2 coat protein (input ligand: none): 24.7 nM

CGAUGACCGGUGAGGAUAUCGUGUUCGAAAGAACGUGAGAAGGCACAUGAGGAUCACCCAUGUGAUCCUCAUCG [Omei Ex4B A33] (Eterna round: R97, puzzle: Brourd's mod of Exclusion 4)
apparent KD of MS2 coat protein (input ligand: FMN 200 uM): 25.9 nM | apparent KD of MS2 coat protein (input ligand: none): 18.2 nM

AAUGCGGACAAAGGAUAUUGCGGUGACCGGCUCGGCGUACCGAGCCUACAUGAGGAUCACCCAUGUAAGAAGGUUGUCGCAAAA [Mat - Exclusion NG 2 - Mod of JL - D75] (Eterna round: R96, puzzle: Exclusion NG 2)
apparent KD of MS2 coat protein (input ligand: FMN 200 uM): 16.6 nM | apparent KD of MS2 coat protein [4]: 13.8 nM | apparent KD of MS2 coat protein (input ligand: none): 17.5 nM

GUGUAACUACACGGGCUCAACAUGAGGAUCACCCAUGUCAUACACGCAAGCUUUUCGCUUGUCUUAUCUGUCCGUGA [Mainesleed] (puzzle: Sensor v3, turn-off variant 1)
apparent KD of MS2 coat protein [1]: 12.5 nM | apparent KD of MS2 coat protein [2]: 14.2 nM | apparent KD of MS2 coat protein [3]: 11.3 nM

UCAUGUAUGUAGGAUAUCGAUGUCUUCGGACAUCGAGAAGGACGUACAUGAGGAUCACCCAUGUAACUUGCAUG [Exclusion 6 - B - 11:b] (puzzle: Exclusion 6)
apparent KD of MS2 coat protein [2]: 14.8 nM

AAUGAGCUAGGAUAUACAUGAGGAUCACCCAUGUAAAAUAGGUCAUGGAGGAACCACUGUAGAAGGAGCAGGGC [Zagereti] (puzzle: Exclusion 3)
apparent KD of MS2 coat protein [2]: 47.1 nM

UAUCGCAAGCGAAGAUCCCACAUGAGGAUCACCCAUGUGCUCGUCUUAUAAGGUACUGUGACGAAAGUCACGGUACC [Sensor 3, v1 - 91 v15] (Eterna round: R97, puzzle: Sensor, turn-off variant 1)
apparent KD of MS2 coat protein (input ligand: FMN 200 uM): 31.6 nM | apparent KD of MS2 coat protein (input ligand: none): 32.2 nM

GCAGGAUAAGUCAGGAUAUACCUAUGGAUACAUAGGUAGAAGGGACAUGAGGAUCACCCAUGUGCCUCGCCUGC [Fiskers BMX 4 - 72] (puzzle: Brourd's mod of Exclusion 4)
apparent KD of MS2 coat protein [2]: 12.4 nM

AGGAGACAUGAGGAUCACCCAUGUGAGGAUAUCGAUGUUACGUGGAUAACCACUUCGUUGAGAAGGCACGCUUC [Eternabot (L2) Solution 55] (Eterna round: R97, puzzle: Exclusion 1)
apparent KD of MS2 coat protein (input ligand: FMN 200 uM): 43 nM | apparent KD of MS2 coat protein (input ligand: none): 38.6 nM

ACAUGAGGAUCACCCAUGUGCACGUAAUGGCUCAUGUAGAGUGAGGAUAUGCGUGGCGAACGCGCGCAGAAGGCACAAGACUGG [Deportation 18 - Jieux - Exclusion NG 3] (Eterna round: R96, puzzle: Exclusion NG 3)
apparent KD of MS2 coat protein (input ligand: FMN 200 uM): 129 nM | apparent KD of MS2 coat protein [4]: 88.8 nM | apparent KD of MS2 coat protein (input ligand: none): 99.7 nM

UUUUGCUCAGGAUAUACAUGAGGAUCACCCAUGUAUAUUGAAGGUAAUACAUGGGAAUGUAGAAGGGAGCUCAU [Omei Ex3 Pseudoloop 21] (Eterna round: R97, puzzle: Exclusion 3)
apparent KD of MS2 coat protein (input ligand: FMN 200 uM): 47.9 nM | apparent KD of MS2 coat protein (input ligand: none): 70.4 nM

AAGAAACAUGAGGAUCACCCAUGUGAGGAUAUGUAAAAGAAAAUAAAAUAAAUAAGAAACAGAAGGCACAAAGG [Mat - Mod of Hog D19] (puzzle: Exclusion 1)
apparent KD of MS2 coat protein [1]: 53.2 nM | apparent KD of MS2 coat protein [2]: 39.2 nM | apparent KD of MS2 coat protein [3]: 44.8 nM

GACCUCAGUCAGGAUAUAGAUAGCGAUAGCGAAUUAGAAGGGACCACAUGAGGAUCACCCAUGUUAGUAUCAUU [Eternabot (L2) Solution 10] (Eterna round: R97, puzzle: Exclusion 6)
apparent KD of MS2 coat protein (input ligand: FMN 200 uM): 38.9 nM | apparent KD of MS2 coat protein (input ligand: none): 34.2 nM

GGUUGGCGAGGAUAUACAUGAGGAUCACCCAUGUGAGAGAAGAAAGUGAGGAAGAAAAGUAGAAGGCGCUGACG [salish99_ex3_r3_004] (puzzle: Exclusion 3)
apparent KD of MS2 coat protein [1]: 133 nM | apparent KD of MS2 coat protein [2]: 59 nM | apparent KD of MS2 coat protein [3]: 62.4 nM

UGAUCAGACCGAGGAUAUACAGGGAGGACGCACGUGAGUGCGUCCACUACAUGAGGAUCACCCAUGUAGAAGGCGGUCUGAUCU [JL ENG2 1.99] (Eterna round: R96, puzzle: Exclusion NG 2)
apparent KD of MS2 coat protein (input ligand: FMN 200 uM): 319 nM | apparent KD of MS2 coat protein [4]: 16.9 nM | apparent KD of MS2 coat protein (input ligand: none): 19.9 nM

GAUCAGCUUGUGAGGAUAUCCGGGCAUAAAGGCUAGGAGAAGGUACAUGAGGAUCACCCAUGUAGAGUCCUGGG [Bisoraxe] (puzzle: Brourd's mod of Exclusion 4)
apparent KD of MS2 coat protein [2]: 41.2 nM

UUUAAUUUUUUUUUUUUACAAGCUUUUUGCUCGUCUUAUACAUGAGGAUCACCCAUGUGGGUGAAAGGUAAAUUAUC [JMF 64] (puzzle: Sensor v3, turn-off variant 2)
apparent KD of MS2 coat protein [1]: 46.8 nM | apparent KD of MS2 coat protein [2]: 21 nM | apparent KD of MS2 coat protein [3]: 54.2 nM

AAGAAUCAAGGAUAUGCAUGAUACGACAUGAGGAUCACCCAUGUCCUCACGCGUAUCCUUGCAGAAGGUGAGUAUA [EX5 A.22] (Eterna round: R97, puzzle: Exclusion 5)
apparent KD of MS2 coat protein (input ligand: FMN 200 uM): 15 nM | apparent KD of MS2 coat protein (input ligand: none): 15.3 nM

UUUUUCUCAGGAUAUACAUGAGGAUCACCCAUGUAUAUUAAGGAUAAUACAUGGGAAUGUAGAAGGGAGCUCAU [Omei Ex3 Pseudoloop 12] (Eterna round: R97, puzzle: Exclusion 3)
apparent KD of MS2 coat protein (input ligand: FMN 200 uM): 106 nM | apparent KD of MS2 coat protein (input ligand: none): 160 nM

UUAGAAAGGUUAGGAUAUUAAUUAUUGUAUAGUAUGAUCUACAUGAGGAUCACCCAUGUUAAAUAUAAGAAGGAACGUUAGAUU [JR_ExcNG2_Sub093] (Eterna round: R96, puzzle: Exclusion NG 2)
apparent KD of MS2 coat protein [4]: 39.9 nM

GACAGCAUGCAGGAUAUACCUCCUCUGCGGACGGUAGAAGGGCGUACAUGAGGAUCACCCAUGUCACCCAUUUC [Eternabot (L2) Solution 61] (Eterna round: R97, puzzle: Exclusion 6)
apparent KD of MS2 coat protein (input ligand: FMN 200 uM): 13.9 nM | apparent KD of MS2 coat protein (input ligand: none): 14.4 nM

GGAGGGAAAGUGAGGAUAUCCGGAGGGAAACCUCCGGAGAAGGCACAUGAGGAUCACCCAUGUAAGGAAGGAGG [AK-MS2ROC-r4-Bmoexclusion4-1.1] (Eterna round: R97, puzzle: Brourd's mod of Exclusion 4)
apparent KD of MS2 coat protein (input ligand: FMN 200 uM): 203 nM | apparent KD of MS2 coat protein (input ligand: none): 135 nM

AGUAACAGAGGAUAUACUGUUUUAUGUGUUUGUUAUUUUAAACAUGAGGAUCACCCAUGUAGAAGGCUGAAUAA [JMF 83] (puzzle: Exclusion 2)
apparent KD of MS2 coat protein [2]: 21.4 nM

CAGACACAUGAGGAUCACCCAUGUGAGGAUAUGCGUACGUUGUCCGUAGGCGACGUGCGCAGAAGGCACAAAGG [JL-ex1-3.09 Eli mod] (puzzle: Exclusion 1)
apparent KD of MS2 coat protein [2]: 52.7 nM

UCCUGACAUGAGGAUCACCCAUGUAAGGAUAUCAGCCACCCAGCAAAAGCUGGGCAAGUGAGAAGGUACACGGG [EX1 A.30] (Eterna round: R97, puzzle: Exclusion 1)
apparent KD of MS2 coat protein (input ligand: FMN 200 uM): 157 nM | apparent KD of MS2 coat protein (input ligand: none): 30.6 nM

UACAUGAGGAUCACCCAUGUUUUGUCGUGUAUGGUAUUUAUCUAGGAUAUCAAUUUAGUUAAUUAUGAGAAGGAGAAUAUUAAU [JMF's solution 75] (Eterna round: R96, puzzle: Exclusion NG 3)
apparent KD of MS2 coat protein [4]: 28.9 nM

CGUCCUGAAGUGAGGAUAUUGUCUCGGAUACGAAACAAGAAGGCACAUGAGGAUCACCCAUGUAAACAGGACGA [Malc #30 mod 11] (puzzle: Brourd's mod of Exclusion 4)
apparent KD of MS2 coat protein [1]: 15.3 nM | apparent KD of MS2 coat protein [2]: 15.6 nM | apparent KD of MS2 coat protein [3]: 16.9 nM

AAGUCCUUGUGGACACAUGAGGAUCACCCAUGUGCGGUCAGCGAGGAUAUCGGUCUAUAAUGUGACGAGAAGGCGCGGACCGAU [Ex NG3 #61] (Eterna round: R96, puzzle: Exclusion NG 3)
apparent KD of MS2 coat protein (input ligand: FMN 200 uM): 26.2 nM | apparent KD of MS2 coat protein [4]: 15.3 nM | apparent KD of MS2 coat protein (input ligand: none): 21.3 nM

AGGGAGUCAGGAUAUUAUUUUUAGCGGGAUAACGCUGAGGGUGAGAAGGGACAUGAGGAUCACCCAUGUUUUGA [JR_Ex4_Sub075] (Eterna round: R97, puzzle: Exclusion 4)
apparent KD of MS2 coat protein (input ligand: FMN 200 uM): 167 nM | apparent KD of MS2 coat protein (input ligand: none): 183 nM
